The record followed here is publication PMC2685691 (The Journal of Biological Chemistry, 2009).

Common to all, as to test: NMR titration
Assay [1] has as its target talin F3 K324D (mouse) (UniProt P26039).
The target in assay [2] is talin F3 Y377A (mouse) (UniProt P26039).
The target of assay [3] is β3-integrin tail (UniProt P05106).
For assay [4], the target named is talin 1655–1822 Q1764A (mouse, UniProt P26039 1655-1822, Q1764A).
Assay [5] addresses talin 1655–1822 rod domain (mouse, UniProt P26039 1655-1822).
Assay [6] has as its target talin 1655–1822 Y1777A (mouse, UniProt P26039 1655-1822, Y1777A).
Assay [7] concerns the target talin 1655–1822 S1684D (mouse, UniProt P26039 1655-1822, S1684D).
For assay [8], the target named is talin 1655–1822 T1767A (mouse, UniProt P26039 1655-1822, T1767A).
Chain of talin 1655–1822 T1767A (P26039 1655-1822 T1767A): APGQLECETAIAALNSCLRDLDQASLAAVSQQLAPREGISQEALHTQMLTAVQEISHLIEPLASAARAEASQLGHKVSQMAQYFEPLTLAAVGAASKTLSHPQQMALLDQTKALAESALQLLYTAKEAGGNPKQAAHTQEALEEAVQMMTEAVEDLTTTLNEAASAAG
Assay [9] has as its target U-15N-labeled talin F3 (309–405) (mouse, UniProt P26039 309-405).

Where “and” joins values, the source holds several entries; their conditions need not be identical. Equal values may be shown once.

Chain of talin 1655–1822 rod domain (mouse, UniProt P26039 1655-1822) (P26039 1655-1822): as the sequence (P26039 1655-1822 T1767A) above, with A113T counted along it
Chain of U-15N-labeled talin F3 (309–405) (P26039 309-405): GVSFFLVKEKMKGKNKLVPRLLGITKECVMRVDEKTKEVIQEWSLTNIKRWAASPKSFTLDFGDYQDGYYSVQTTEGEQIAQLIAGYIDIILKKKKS
Chain of talin 1655–1822 S1684D (P26039 1655-1822 S1684D): as the sequence (P26039 1655-1822 T1767A) above, with S30D, A113T counted along it
Chain of talin 1655–1822 Q1764A (P26039 1655-1822 Q1764A): as the sequence (P26039 1655-1822 T1767A) above, with Q110A, A113T counted along it
Chain of talin 1655–1822 Y1777A (P26039 1655-1822 Y1777A): as the sequence (P26039 1655-1822 T1767A) above, with A113T, Y123A counted along it

Consider “talin 1655–1822 rod domain (from UniProt P26039 1655-1822) (domain or fragment)”, for which the fold decrease in affinity against wild-type F3 in assay [1] was 23 fold. The molecule further registered a fold decrease in binding affinity against wild-type F3 in assay [2] of 5 fold.
In assay [3], “M319A F3 mutant (from UniProt P26039 309-405) (domain or fragment)” gave a Kd of 225 µM.

B1: talin F3 FERM subdomain (residues 309–400) (domain or fragment)
chain: GVSFFLVKEKMKGKNKLVPRLLGITKECVMRVDEKTKEVIQEWSLTNIKRWAASPKSFTLDFGDYQDGYYSVQTTEGEQIAQLIAGYIDIIL
Consider B1, for which the binding result in assay [4], in assay [6], in [7] and in assay [8] was “binds” in each case. Further, the Kd in [5] is 11 µM and 9 µM.

B2: β3-integrin tail (domain or fragment)
chain: KLLITIHDRKEFAKFEEERARAKWDTANNPLYKEATSTFTNITYRGT
The molecule B2 yielded a Kd in [9] of 273 ± 6 µM.
